In assay [1] the target is T1, Fas (CD95/APO-1) on Jurkat cells (human, UniProt P25445 26-335).
T1 sequence (looked up): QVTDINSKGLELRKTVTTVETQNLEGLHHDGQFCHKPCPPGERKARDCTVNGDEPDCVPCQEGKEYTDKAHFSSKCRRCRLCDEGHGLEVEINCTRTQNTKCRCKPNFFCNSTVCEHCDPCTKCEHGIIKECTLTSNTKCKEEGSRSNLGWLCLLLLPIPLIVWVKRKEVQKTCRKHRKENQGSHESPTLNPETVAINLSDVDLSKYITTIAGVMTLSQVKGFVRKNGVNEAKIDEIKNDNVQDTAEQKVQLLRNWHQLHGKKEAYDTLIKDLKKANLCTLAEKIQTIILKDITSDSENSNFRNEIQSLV
Briefly: cell-based or functional assay.

The next assay has as its target T2, CD28 on human cells (human, UniProt P10747 19-220).
T2 construct: whole, on cells; also called CD28 receptor
Briefly: inferred from inhibition of cell death by anti-CD28 blocking antibody on JKCD28high cells. The procedure: FIG. 14: Effect of the pFasL and CD80-pFasL chimeras on the JKCD28low, JKCD28high and JKCD28delta cell lines. Panel A: membrane expression of Fas and CD28 on the three cell lines. The cells were stained with the indicated antibodies, or with an isotype-matched negative control antibody (shaded histograms) then analysed by flow cytometry. Panel B: the apoptotic activity of the pFasL and CD80-pFasL chimeras was tested against the three cell lines (JKCD28 low: empty triangles; JKCD28high: filled triangles; JKCD28delta: squares) at a range of concentrations, measured in the FasL ELISA. Cell death was estimated by the MTT viability assay. Mean and sd from three distinct experiments. Panel C: the pFasL and CD80-pFasL chimeras were used at a non-saturating concentration that triggers a suboptimal cell death. The JKCD28low and JKCD28high cell lines were pre-incubated without (no antibody) or with an isotype-matched control antibody at 10 μg/mL or with the CD28.2 clone of anti-CD28 blocking antibody at 10, 3 or 1 μg/mL. Cell death was measured using the MTT cell viability assay. Mean and sd from three distinct experiments.
To analyse this possibility, the inventors conducted experiments where CD28 was blocked using a neutralising antibody. […]

The text below walks through data of patent US20150044237A1 (CENTRE NATIONAL DE LA RECHERCHE SCIENTIFIQUE, published 2015).

B1: CD80-pFasL (other)
chain: VIHVTKEVKEVATLSCGHNVSVEELAQTRIYWQKEKKMVLTMMSGDMNIWPEYKNRTIFDITNNLSIVILALRPSDEGTYECVVLKYEKDAFKREHLAEVTLSVKADFPTPSISDFEIPTSNIRRIICSTSGGFPEPHLSWLENGEELNAINTTVSQDPETELYAVSSKLDFNMTTNHSFMCLIKYGHLRVNQTFNWNTTKQEHFPSSIPDSQTKVFPQDKVILVGSDITFCCVSQEKVLSALIGHTNCPLIHLDGENVAIKIRNISVSASSGTNVVFTTEDNIFGTVISRALQKELAELRESTSQMHTASSLEKQIGHPSPPPEKKELRKVAHLTGKSNSRSMPLEWEDTYGIVLLSGVKYKKGGLVINETGLYFVYSKVYFRGQSCNNLPLSHKVYMRNSKYPQDLVMMEGKMMSYCTTGQMWARSSYLGAVFNLTSADHLYVNVSELSLVNFEESQTFFGLYKL
notes: Polymeric, produced in HEK 293T cells; also called CD80IgFasL; CD80-IgFasL polymeric chimera
With B1, in assay [1], the “C50 against pFasL, JKCD28delta cell line” value was 10 fold increase against pFasL; the “C50 against pFasL, JKCD28high cell line” value was 2.5 fold decrease against pFasL; the “C50 against pFasL, JKCD28low cell line” value was 17 fold decrease against pFasL. In addition, the binding result with CD28 on human cells is “binds”.
